Changes are numbered by the printed parent chain.

The target in series [1] is T1, U2AF23 F165A;U2AF59 fragment (Schizosaccharomyces …, UniProt Q09176;P36629 1-216;93-161, F165A|).
T1 sequence 1: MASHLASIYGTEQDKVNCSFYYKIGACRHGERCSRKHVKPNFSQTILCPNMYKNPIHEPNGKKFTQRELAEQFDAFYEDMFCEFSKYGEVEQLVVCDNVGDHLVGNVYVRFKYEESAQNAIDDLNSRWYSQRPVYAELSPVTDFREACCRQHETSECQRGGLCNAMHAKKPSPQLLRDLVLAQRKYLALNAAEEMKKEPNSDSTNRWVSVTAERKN
T1 sequence 2: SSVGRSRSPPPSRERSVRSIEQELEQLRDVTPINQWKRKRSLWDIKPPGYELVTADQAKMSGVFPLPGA
The series is described as follows: ITC. For orientation: ITC needs no label: the signal is the heat of the interaction.

The target in series [2] is T2, U2AF23 R28S;U2AF59 fragment (Schizosaccharomyces …, UniProt Q09176;P36629 1-216;93-161, R28S|).
T2 sequence 1: T1 sequence 1 with R28S, A165F
T2 sequence 2: T1 sequence 2
The series can be described thus: ITC.

Series [3] concerns the target T3, U2AF23 F20A;U2AF59 fragment (Schizosaccharomyces …, UniProt Q09176;P36629 1-216;93-161, F20A|).
T3 sequence 1: T1 sequence 1 with F20A, A165F
T3 sequence 2: T1 sequence 2
The series can be described thus: ITC.

Series [4] concerns the target T4, U2AF23 R159S;U2AF59 fragment (Schizosaccharomyces …, UniProt Q09176;P36629 1-216;93-161, R159S|).
T4 sequence 1: T1 sequence 1 with R159S, A165F
T4 sequence 2: T1 sequence 2
The series can be described thus: ITC.

Series [5] has as its target T5, U2AF23 Q151R;U2AF59 fragment (Schizosaccharomyces …, UniProt Q09176;P36629 1-216;93-161, Q151R|).
T5 sequence 1: T1 sequence 1 with Q151R, A165F
T5 sequence 2: T1 sequence 2
The series is described as follows: ITC.

The target of series [6] is T6, U2AF23 WT;U2AF59 fragment (Schizosaccharomyces …, UniProt Q09176;P36629 1-216;93-161, |).
T6 sequence 1: T1 sequence 1 with A165F
T6 sequence 2: T1 sequence 2
The series is described as follows: ITC.

For series [7], the target named is T7, U2AF23 R150S;U2AF59 fragment (Schizosaccharomyces …, UniProt Q09176;P36629 1-216;93-161, R150S|).
T7 sequence 1: T1 sequence 1 with R150S, A165F
T7 sequence 2: T1 sequence 2
The series can be described thus: ITC.

Series [8] concerns the target T8, U2AF23 R35S;U2AF59 fragment (Schizosaccharomyces …, UniProt Q09176;P36629 1-216;93-161, R35S|).
T8 sequence 1: T1 sequence 1 with R35S, A165F
T8 sequence 2: T1 sequence 2
The series can be described thus: ITC.

The target in series [9] is T9, U2AF23, the small subunit of fission yeast Schizosaccharomyces pombe U2AF (Schizosaccharomyces pombe, UniProt Q09176 1-216).
T9 sequence: T1 sequence 1 with A165F
The series is described as follows: crystal structure.

By Kd is commonly meant a measure of binding affinity in units of concentration. Lower therefore signals higher affinity. With CUAGG (ssRNA), the binding result in series [1], in [3], in series [4], in series [7] and in series [8] was “no binding” each time. Besides, the results for the dissociation constant Kd in series [2], in [5] and in [6] were 12 µM, 0.75 µM and 1.2 µM, respectively.

CUGGG (ssRNA) showed an equilibrium dissociation constant (Kd) in [6] of 63 µM.

As to CUACG (ssRNA), in [6], the binding result is “no binding”.

On to UUUUUUUUUU (ssRNA) [U10], for which, in series [6], the binding result is “no binding”.

B1: U2AF59 fragment spanning residues 93–161 (S. pombe U2AF large subunit) (domain or fragment)
chain: T1 sequence 2
As to B1, the binding result in [9] is listed as “binds”.

Consider CUAUG (ssRNA), for which binding in series [5] was put at a Kd of 53 µM. Further, the binding result in [6] is given as “no binding”.

In turn, CUCGG (ssRNA) came in with a Kd in [6] of 296 µM.

Molecule CUUGG (ssRNA) had a dissociation constant (Kd) in series [6] of 429 µM.

The values are drawn from publication PMC4536312 (Genes & Development, 2015).
